Measured values from article doi:10.1101/2022.03.25.485784 (bioRxiv, 2022).

Molecular target: the molecule itself
Test: cryo-EM structure

B1: dtSARM1, the full-length SARM1 with the N-terminal 27-aa segment replaced by a twin-Strep and Flag-tag (enzyme)
chain: LAVPGPDGGGGTGPWWAAGGRGPREVSPGAGTEVQDALERALPELQQALSALKQAGGARAVGAGLAEVFQLVEEAWLLPAVGREVAQGLCDAIRLDGGLDLLLRLLQAPELETRVQAARLLEQILVAENRDRVARIGLGVILNLAKEREPVELARSVAGILEHMFKHSEETCQRLVAAGGLDAVLYWCRRTDPALLRHCALALGNCALHGGQAVQRRMVEKRAAEWLFPLAFSKEDELLRLHACLAVAVLATNKEVEREVERSGTLALVEPLVASLDPGRFARCLVDASDTSQGRGPDDLQRLVPLLDSNRLEAQCIGAFYLCAEAAIKSLQGKTKVFSDIGAIQSLKRLVSYSTNGTKSALAKRALRLLGEEVPRPILPSVPSWKEAEVQTWLQQIGFSKYCESFREQQVDGDLLLRLTEEELQTDLGMKSGITRKRFFRELTELKTFANYSTCDRSNLADWLGSLDPRFRQYTYGLVSCGLDRSLLHRVSEQQLLEDCGIHLGVHRARILTAAREMLHSPLPCTGGKPSGDTPDVFISYRRNSGSQLASLLKVHLQLHGFSVFIDVEKLEAGKFEDKLIQSVMGARNFVLVLSPGALDKCMQDHDCKDWVHKEIVTALSCGKNIVPIIDGFEWPEPQVLPEDMQAVLTFNGIKWSHEYQEATIEKIIRFLQGRSSRDSSAGSDTSLEGAAPMGPT
  stoichiometry N: 8
